The results in this text go back to PMC8639797.

The target of the test is ALK ECR^ABR variants with single substitutions in the TNF-like or EGF-like domains (BLI, Fig. 2d). The test is described as follows: BLI. A general note: In BLI a coated tip is dipped into the sample, and binding shifts an interference pattern.

B1: ALKAL2-AD (residues 77–152) (domain or fragment)
chain: GPSPEQRVEIVPRDLRMKDKFLKHLTGPLYFSPKCSKHFHRLYHNTRDCTIPAYYKRCARLLTRLAVSPVCMEDKQ
On to B1, for which the fold reduction of affinity against wild type lay within 2 to 3 fold.
